Test results from the DeepSol protein solubility set.

assay: soluble on expression in E. coli; label from the status in PepcDB or PDB records

Row | Sequence | soluble on expression in E. coli
1 | MTEFYSDTIGLPKTDPRLWRLRTDELGRESWEYLTPQQAANDPPSTFTQWLLQDPKFPQPHPERNKHSPDFSAFDACHNGASFFKLLQEPDSGIFPCQYKGPMFMTIGYVAVNYIAGIEIPEHERIELIRYIVNTAHPVDGGWGLHSVDKSTVFGTVLNYVILRLLGLPKDHPVCAKARSTLLRLGGAIGSPHWGKIWLSALNLYKWEGVNPAPPETWLLPYSLPMHPGRWWVHTRGVYIPVSYLSLVKFSCPMTPLLEELRNEIYTKPFDKINFSKNRNTVCGVDLYYPHSTTLNIANSLVVFYEKYLRNRFIYSLSKKKVYDLIKTELQNTDSLCIAPVNQAFCALVTLIEEGVDSEAFQRLQYRFKDALFHGPQGMTIMGTNGVQTWDCAFAIQYFFVAGLAERPEFYNTIVSAYKFLCHAQFDTECVPGSYRDKRKGAWGFSTKTQGYTVADCTAEAIKAIIMVKNSPVFSEVHHMISSERLFEGIDVLLNLQNIGSFEYGSFATYEKIKAPLAMETLNPAEVFGNIMVEYPYVECTDSSVLGLTYFHKYFDYRKEEIRTRIRIAIEFIKKSQLPDGSWYGSWGICFTYAGMFALEALHTVGETYENSSTVRKGCDFLVSKQMKDGGWGESMKSSELHSYVDSEKSLVVQTAWALIALLFAEYPNKEVIDRGIDLLKNRQEESGEWKFESVEGVFNHSCAIEYPSYRFLFPIKALGMYSRAYETHTL | soluble
2 | MTEIKYKVITKDAFALPYTIIKAKNQPTKGVIVYIHGGGLMFGKANDLSPQYIDILTEHYDLIQLSYRLLPEVSLDCIIEDVYASFDAIQSQYSNCPIFTFGRSSGAYLSLLIARDRDIDGVIDFYGYSRINTEPFKTTNSYYAKIAQSINETMIAQLTSPTPVVQDQIAQRFLIYVYARGTGKWINMINIADYTDSKYNIAPDELKTLPPVFIAHCNGDYDVPVEESEHIMNHVPHSTFERVNKNEHDFDRRPNDEAITIYRKVVDFLNAITMV | soluble
3 | MTELKDRLQVADKEKWNLTDIYDTIEDWESDFHKIEVLTNELHEFNGNIHDGNSLLAYLTKSEEISSIISLMFAYARLQSDLDTRDTDAQSLVDKVSQLHVKVSAAKSFFSPFLLSVDENTLHTYIEEAEGLQYYKEDLFELYRYKKHVLNKDQEEILSQMGEALSSPQHTYGMLNNADILFGEVTSNDGEKVTLTRGMYAKLIEDESREKRKEAYKAYYKPYVQLKNSIASTLSAAIKNNVTVSKLRKYPSALEKSLFGDMVPKEVYENLIETTKKNIQSLHTYNKLRKEKLNVDELRQYDLSVDLVQGVKQDIPYDNAFDIMIESLAPLGEEYIETLKSFKDKRYIDVRETPGKCSGAYNFGVYGVHPFILLNHHDDLNSLFTLTHECGHGMHTHYSHGYQPRISAHYTIFVAEVASTVNEVLLIHHLLKEAKDANVRNHLVNHFIEKFKGTFFTQIMFAEFEKITHEMAQQGKPLNAQVFSDVYENLFREYNGDSLVFDEEVKYGWARIPHFYRPFYVYKYATGFASAIQIADKLLSGDPNAQKNYLEFLKGGSSDYPLNLLKKAGVDLTTPEPIESALNRFSELVEEFSTL | not soluble
4 | MTENVEYIRVLLKSSQAEVQMLREQNEFRDDLLKMFKVKLEVNALNNLPVRRNLSVEISNLETKKLKTEIAFLKEELGREGKKLTIANTVHEQLKKDLEAEKRNSMFLSELLTFYQNGHQPQLPAEDQFVDFLQTETRSVKEALKEKEEEVKRLLVDMEGKTFQNLTEKGRMEEEMNDAKREAQILRNEMKSLQKNMTAKENELLGYLRDASETHTEMQKDYKIQILELQRRNRILERHLDNIQ | not soluble
5 | MTEPFIVRRETQIAAPRATVFAYLTDPEKILSWMGSDATTEPHPGGLYLLKGIGPRGAAARGAFREVVPVHRLAYTFGWEGGQEVPPGSSLIEIDLIERDGGTLLRMTHSGLPTEEQAAAHAKGWAHYLERLTTAAAGNDPGPDNGVSTKSLEHHHHHH | soluble
6 | MTERILEVNDLHVSFDITAGEVQAVRGVDFYLNKGETLAIVGESGSGKSVTTKAITKLFQGDTGRIKKGEILFLGEDLAKKPENELIKLRGKDISMIFQDPMTSLNPTMQIGKQVMEPLIKHKNYSKAQAKKRALEILNLVGLPNAEKRFKAYPHQFSGGQRQRIVIATALACEPKVLIADEPTTALDVTMQAQILDLMKELQQKIDTAIIFITHDLGVVANIADRVAVMYGGQMVETGDVNEIFYDPKHPYTWGLLSSMPDLSTTNDTPLLAIPGAPPDLLHPPKGDAFARRSQYALDIDFKVEPPWFKVSPTHFVKSWLLDARAPKVELPELVKQRMKPMPNNYEKPLKVERVSFNEK | not soluble
7 | MTETSTVSIASSAIVCVEADIKGEVIIKEGCVVHPFVVFDATKGPIYVGENNIFEEYAVIRNNSDGQPMIIGDWNIFQVHSKSSAKYVGSRNVIGVHAVLEDGCSVSDDCSVGAKCTVFSHQNLEPSVSVYAATNLSRTTKTPNMTSPHQIEFLRKILPSYHHLYGKKKAVATASASAAQ | not soluble
8 | MTFAEYFKNWYIFYKKPKVSKVTLNRYQYTYNVINEYFGNKLLKDITRANYQKFIVKYGQNHSPNTMKMINNCIKACVKNAVYDEEIKKDFTYNIELISNRDNVVQLEHHHHHH | not soluble
9 | MTFAGIDVSKTHLDLALVSNSPKPTRLRFPNSPEGRQALLAALAHHNPAWVALEPTSAYHLPLLKLLAENRLQVALVNPYHLAAFRKAKGERQKTDRQDALLLARYAQVYHEDLRAYTLPPETLRELKALVGYREDLAGRERTILNQMEAAEWAGSKEVLALLQKELACVKGLLGEVEARIQALLATLPEAEVLMALPGVGPQVAAAVLALLPPELWGRAKRAASYAGLIPEREESGKSVERSRLSKKGPPLLRRKLYMGALVAVRHDPEMRAFYHRLLSRGKRKKQALVAVAHKLLRRMMGRLREYYATQLDQGVA | soluble
10 | MTFGAGHLRAAEALIEAVRKKSPEAEITHLDFGAFISKTLNTIVKNTYIELIKHTPRLYGMFYYRTSKIRPQSLIQRFINILGRKEFLDYIKGLNPDVIICTYPVIAGVLGELRFKGVIHAPVVSVVTDYGVHSQYIQRGVDLYIAGCQDVYKDLIAGGIARERIRITGIPVDPKFEEELEHHHHHH | not soluble
11 | MTGNKIHNPLDRNHSELRDKKVSLNDGDPFTIALFGVDSDADRKKKGGGERSDSIMILSINPKTKKTEIVSIPRDTRAEIVGRGTTEKIAHAYAYGGPNMAVKSLEKLMNVPIDHYATIDMDGLHNMIDSIGGVDVVSNDTFTVDGVRFTKGQQTHVNGDQALKFIRSRKEEGAGGDFGRQQRQQIVLEAMANKIASPSSITHFNSLMNEIQNNVKTDLTLGDLNTIRSNYKDANDTINKHQLSGQGGIQSDGLYYFIPSEQSKAESTKLLKDNLELEHHHHHH | soluble
12 | MTGSQFPREELFAPGHRGCAGCGAAIVARLALKAAGKNTIVANATGCLEVMTTPYPETAWRVPWIHVAFENAAAVASGIEGAVVALKRKKGKYGEEKVNVIAFGGDGGTADIGFQALSGAMERGHDMVYIMYDNEAYMNTGVQRSGSTPFMASTTTSPAGSHIRGENRPKKDMPMIMAAHGIPYIATASISYPEDFMNKVKKACEVNGPAFIQVLQPCTTGWGYPAENTVEMGRLAVETGVWPLFEIENGEFKLNYKPLKRKPIEEYLKVQKRYRHLKPEDISVIQETIDMKCDEYGL | not soluble
13 | MTHLLETKNLSVSFGEHHVIKDVNLIVQKGKLISIIGPNGAGKTTLFNLLSGQISPTKGEVYFKGQEITKLSISDRTRLGIGRSFQLTNIFPELTVLENVRLSVQSFVQDYYSFFPSSAKFKQQVGEARRFLKTVLLQEKEHVLAKDLAHGEKRKLELAMLLALKTDVLLLDEPTAGISVEEVPAILQVIENIKKHPESTIVLIEHKMDMVLGLSDHLIVLFHGELLAEGMPEEIMKDERVQSAYLGGLYSGTITSE | not soluble
14 | MTHNGGRHLLEAVTLCGSILTRYKRSNMKLDEAEVRALKELFEKYQDILVDGSPGLPTHASGPMIQPPVTNMVAPYDSPTDTIVKFVEGTINLQRPIVEVLHVMNEHLSLVLRAKNTHVFYVDPVNNLLYDPIHGVAAALDESSPIGKAIVSGERLNVAGTLYIPIISEGMPLGCVLSPCGRADYHASTMLESSLRVISTSLKNIIQAEKLNWNKEKAEAMLRMATQLARDNLEETVLASSIMNTVKSLTESARCSLFLVRGDVLEAHFEDGNVVTIPRGAGIAGYVAQTGETVNIVDAYADDRFNREVDKATGYRTKTILCMPVMYEGTIVAVAQLINKLDLTTESGLRLPRVFGKRDEELFQTFSMFAGASLRNCRINDRLLKEKKKSDVILDVVTVLSNTDIRDVDGIVRHALHGAKKLLNADRSTLFLVDKERNELCSRMADSVAGKEIRFPCGQGIAGTVAASGVGENIQDAYQDPRFNREVDKQLGYRTQTILCEPIILNGEILAVVQLVNKLDTSGEVTVFTEDDRETFRVFSLFAGISINNSHLLEFAVKAGREVMELNEHRATLFNKNVPSRAVKRVTAITKVEREAVLVCELPSFDVTDVEFDLFRARESTDKPLDVAAAIAYRLLLGSGLPQKFGCSDEVLLNFILQCRKKYRNVPYHNFYHVVDVCQTIYTFLYRGNVYEKLTELECFVLLITALVHDLDHMGLNNSFYLKTESPLGILSSASGNTSVLEVHHCNLAVEILSDPESDVFGGLEGAERTLAFRSMIDCVLATDMAKHGSALEAFLASAADQSSDEAAFHRMTMEIILKAGDISNVTKPFDISRQWAMAVTEEFYRQGDMEKERGVEVLPMFDRSKNMELAKGQIGFIDFVAAPFFQKIVDACLQGMQWTVDRIKSNRAQWERVLETRLSTSSGNNSSTR | soluble
15 | MTHVTPFSNPFLLGFETIEKTLRRIGKADETYPAYNIERLHKNDDASHIRITLAVAGFKVNNLNILLDDNQLIIHGKQTDSQNHQYLYRGIAARQFQRTFVLVEGMHVTNAELKNGLLSINLYQPKTKKQMKQIPIKVSNKS | not soluble
16 | MTIDTTNESDNSPTNSPGLEASARTFSLNASKMVRITDDYADEVFIEQNDVVIEKPRMDPLHVRKLMETWRKAARRARTNYIDPWDEFNIHEYPVQRAKRYRYSAIRKQWTEDIVDVRLHPDSFARGAMRECYRLKKCSKHGTSQDWSSNYVAKRYICQVDRRVLFDDVRLQMDAKLWAEEYNRYNPPKKIDIVQMCVIEMIDVKGSPLYHLEHFIEGKYIKYNSNSGFVSNAARLTPQAFSHFTFERSGHQMMVVDIQGVGDLYTDPQIHTVVGTDYGDGNLGTRGMALFFHSHRCNDICETMDLSNFELSPPEIEATEVAMEVAAKQKKSCIVPPTVFEARRNRISSECVHVEHGISMDQLRKRKTLNQSSTDLSAKSHNEDCVCPECIPVVEQLCEPCSEDEEDEEEDYPRSEKSGNSQKSRRSRMSISTRSSGDESASRPRKCGFVDLNSLRQRHDSFRSSVGTYSMNSSRQTRDTEKDEFWKVLRKQSVPANILSLQLQQMAANLENDEDVPQVTGHQFSVLGQIHIDLSRYHELGRFVEVDSEHKEMLEGSENDARVPIKYDKQSAIFHLDIARKCGILEAVLTSAHIVLGLPHELLKEVTVDDLFPNGFGEQENGIRDLEEFGSDLMEIAAEMGDKGAMLYMAHAYETGQHLGPNRRTDYKKSIDWYQRVVGFQEEEELDSDCGKTTFSSFAPLTRHEILAKMAEMYKEGGYGLNQDFERAYGLFNEAAEAAMEAMNGKLANKYYEKAEMCGE | not soluble
